Test results published in patent publication EP0138995B1, “REGULATION OF ENZYMES WHICH UTILIZE TETRAHYDROBIOPTERIN OR TETRAHYDROFOLATE COFACTORS WITH 6, 6-DISUBSTITUTED-TETRAHYDROPTERIDINES” (South Alabama Medical Science Foundation, priority 1983, dated 1984).

Key:
[1] = substrate: CC1=Nc2c(O)nc(N)nc2NC1; assay: Quinoid dihydropterin as substrate for dihydropteridine reductase (beef liver); assay type: biochemical; settings: other: substrate produced by Peroxidase + H2O2; pH 7.4; 27.0 °C
[2] = substrate: CC1(C)CNC2=NC(N)=NC(=O)C2=N1; assay: as above; assay type: biochemical
Method: Substrate Properties of Quinoid-6,6-dimethyldihydropterin for Dihydropteridine Reductase: 6,6-Dimethyltetrahydropterin was oxidized by three different procedures to produce q-6,6-Me₂PH₂ to be tested as a substrate for dihydropteridine reductase. • (i) Chemical synthesis. […] The q-6,6-Me₂PH₂ was dissolved in 0.1 M Tris·HCl, pH 7.4 immediately before use to make a 10 mM stock solution, which was kept on ice. To test for substrate activity a small volume (<50 µl) was added to a cuvette containing 0.1 M Tris·HCl, pH 7.4, which had been temperature equilibrated to 27°, and the absorbance at 340 nm was measured. • (ii) Oxidation by peroxidase and H₂O₂. Peroxidase (6 units/ml final volume) was temperature equilibrated in 0.1 M Tris·HCl, pH 7.4, at 27° for 5 minutes. H₂O₂ (1.2 mM final concentration) was then added, followed by 6,6-Me₂PH₄. Conversion to q-6,6-Me₂PH₂, monitored at 340 nm, was complete within a few seconds. • (iii) Generation by phenylalanine hydroxylase: Phenylalanine hydroxylase (0.6 units/ml), catalase (2500 units/ml), and phenylalanine (3 mM final concentration) were temperature equilibrated at 27° in 0.1 M Tris·HCl, pH 7.4. At 5 minutes, 6,6-Me₂PH₄ was introduced and monitored at 340 nm. Conversion of 6,6-Me₂PH₄ to quinoid dihydropterin was complete in 1-7 minutes, depending on the concentration. To each of the above solutions containing q-6,6-Me₂PH₂, NADH (final concentration 0.1 mM) as added, and the background rate recorded for 1 minute. Reaction was then initiated with dihydropteridine reductase (0.01 units/ml). Rates were calculated from the enzyme dependent decrease in O.D. at 340 nm, using an extinction coefficient of 9.8 for the chemically synthesized substrate and 6.2 for the peroxidase- and phenylalanine-hydroxylase-containing reactions in which the pterin is maintained in the quinoid form. Due to the high concentrations of q-6,6-Me₂PH₂ required to obtain an accurate Km, cuvettes of 0.5 cm light path were used.

[3] = substrate: CC1(c2ccccc2)CNC2=NC(N)=NC(=O)C2=N1; assay: as above; assay type: biochemical; settings: other: substrate produced by Peroxidase + H2O2; pH 7.4; 27.0 °C
[4] = substrate: CC1(C)CNc2nc(N)[nH]c(=O)c2N1; assay: Phenylalanine hydroxylase cofactor assay (cofactor consumption and tyrosine formation); assay type: biochemical, Rat; settings: other: 1 mM phenylalanine, atmospheric oxygen, 0.1 M Tris·HCl, pH 7.4, 27°C
Method: (§1) The 6,6-dimethyl substituted tetrahydropterin was tested for cofactor activity in a standard phenylalanine hydroxylase assay in which both cofactor consumption and tyrosine formation were monitored. […] An apparent Michaelis constant was determined at 1 mM phenylalanine and atmospheric oxygen with concentrations of 6,6-Me₂PH₄ ranging from 0.02-0.3 mM. The effect of a second methyl at the 6-position slightly increases the affinity for phenylalanine hydroxylase, since the apparent Km was two-thirds to three-quarters that of 6-methyl and 6,7-dimethyltetrahydropterin (Table IV). […] The maximum velocity of the reaction with 6,6-Me₂PH₄ is similar to that with the 6,7-dimethyl compound and about 6 times slower than with the natural cofactor (Table IV).

[5] = substrate: CC1CNc2nc(N)[nH]c(=O)c2N1; assay: as above; assay type: biochemical, Rat; settings: other: 1 mM phenylalanine, atmospheric oxygen, 0.1 M Tris·HCl, pH 7.4, 27°C
Method: as §1

[6] = substrate: CC1(C)CNC2=NC(N)=NC(=O)C2=N1; assay: Quinoid dihydropterin as substrate for dihydropteridine reductase (sheep liver); assay type: biochemical
Method: The quinoid was generated from 6,6-Me₂PH₄, as outlined previously. […] Peroxidase (6 units/ml final volume) was temperature equilibrated in 0.1 M Tris·HCl, pH 7.4, at 27° for 5 minutes. H₂O₂ (1.2 mM final concentration) was then added, followed by 6,6-Me₂PH₄. Conversion to q-6,6-Me₂PH₂, monitored at 340 nm, was complete within a few seconds. • (iii) Generation by phenylalanine hydroxylase: […] At 5 minutes, 6,6-Me₂PH₄ was introduced and monitored at 340 nm. Conversion of 6,6-Me₂PH₄ to quinoid dihydropterin was complete in 1-7 minutes, depending on the concentration. […] Reaction was then initiated with dihydropteridine reductase (0.01 units/ml). Rates were calculated from the enzyme dependent decrease in O.D. at 340 nm, using an extinction coefficient of 9.8 for the chemically synthesized substrate and 6.2 for the peroxidase- and phenylalanine-hydroxylase-containing reactions in which the pterin is maintained in the quinoid form. […] This Km was obtained regardless of the method of generation of the quinoid dihydropterin. The Vmax's were also the same for the dihydropteridine reductase catalyzed reduction of quinoid generated by any of the three methods (Table VI). Thus, the quinoid products of each procedure appear to behave equally.

[7] = other: substrate produced by Bromine oxidation, 0.1 M Tris·HCl, pH 7.4, 27°C
[8] = other: substrate produced by Phe hydroxylase + phe, pH 7.4, 27.0 °C

B1: Beef Liver Dihydropteridine Reductase (Bos taurus) (protein)
chain: MAAAAGEARRVLVYGGRGALGSRCVQAFRARNWWVASIDVQENEEASANVVVKMTDSFTEQADQVTAEVGKLLGTEKVDAILCVAGGWAGGNAKSKSLFKNCDLMWKQSVWTSTISSHLATKHLKEGGLLTLAGARAALDGTPGMIGYGMAKAAVHQLCQSLAGKSSGLPPGAAAVALLPVTLDTPVNRKSMPEADFSSWTPLEFLVETFHDWITEKNRPSSGSLIQVVTTEGKTELTAASP
notes: from tissue; host or cells: beef liver
In the case of B1, the Km [1] is reported as 30 µM, the Km [2, 7] is reported as 400 µM and the Km ([2]; other: substrate produced by Peroxidase + H2O2, pH 7.4, 27.0 °C) is reported as 400 µM. The Km [2, 8] was 400 µM and the Km [3] was 70 µM.

B2: Rat Liver Phenylalanine Hydroxylase (Rattus norvegicus) (protein)
chain: MAAVVLENGVLSRKLSDFGQETSYIEDNSNQNGAISLIFSLKEEVGALAKVLRLFEENDINLTHIESRPSRLNKDEYEFFTYLDKRTKPVLGSIIKSLRNDIGATVHELSRDKEKNTVPWFPRTIQELDRFANQILSYGAELDADHPGFKDPVYRARRKQFADIAYNYRHGQPIPRVEYTEEEKQTWGTVFRTLKALYKTHACYEHNHIFPLLEKYCGFREDNIPQLEDVSQFLQTCTGFRLRPVAGLLSSRDFLGGLAFRVFHCTQYIRHGSKPMYTPEPDICHELLGHVPLFSDRSFAQFSQEIGLASLGAPDEYIEKLATIYWFTVEFGLCKEGDSIKAYGAGLLSSFGELQYCLSDKPKLLPLELEKTACQEYSVTEFQPLYYVAESFSDAKEKVRTFAATIPRPFSVRYDPYTQRVEVLDNTQQLKILADSINSEVGILCNALQKIKS
notes: Cofactor for Rat Liver Phenylalanine Hydroxylase; from tissue; host or cells: rat liver
B2 gave a Km [4] of 66 ± 10 µM and a Km [5] of 100 ± 20 µM.

B3: Sheep Liver Dihydropteridine Reductase (Ovis aries) (protein)
chain: WVASIDVQENEEASANVVVKMTDSFTEQADQVTAEVGELLGTEKVDAILCVAGGWAGGNAKSKSLFKNCDLMWKQSVWTSTISSHLATKHLKEGGLLTLAGARAALDGTPGMIGYGMAKAAVHQLCRSLAGKNSGLPPGAAAVALLPVTLDTPVNRKSMPEADFSSWTPLEFLVETFHDWITEKNRPSSGSLIQVVTTEGKTELTTASL
B3 gave a Km [6, 7] of 400 µM and a Km [6, 8] of 400 µM.
